Laboratory results reported in US20140348865A1, “[…] ON AN HIV-1 V1V2 SITE-OF-VULNERABILITY” (The United States of America, as represented by the …, priority 2011, published 2014).

Experiments:
[1] = target: 89.6.DG (HIV-1)
[2] = target: AC10.29 (HIV-1)
[3] = target: ADA.DG (HIV-1)
[4] = target: BL01.DG (HIV-1)
[5] = target: BR07.DG (HIV-1)
[6] = target: BX08_16 (HIV-1)
[7] = target: BaL.26 (HIV-1)
[8] = target: Bal.01 (HIV-1)
[9] = target: CAAN.A2 (HIV-1)
[10] = target: CH038.12 (HIV-1)
[11] = target: CH070.1 (HIV-1)
[12] = target: CNE10 (HIV-1)
[13] = target: CNE12 (HIV-1)
[14] = target: CNE14 (HIV-1)
[15] = target: CNE57 (HIV-1)
[16] = target: DJ263.8 (HIV-1)
[17] = target: Env of HIV-1 strain 7165.18 (pseudovirus) (HIV-1)
[18] = target: Env of HIV-1 strain BG 1168 (pseudovirus) (HIV-1)
[19] = target: Env of HIV-1 strain CNE4 (pseudovirus) (HIV-1)
[20] = target: Env of HIV-1 strain JRFL (pseudovirus) (HIV-1)
[21] = target: Env of HIV-1 strain QH0515 (pseudovirus) (HIV-1)
[22] = target: Env of HIV-1 strain RHPA (pseudovirus) (HIV-1)
[23] = target: Env of HIV-1 strain T251-18 (pseudovirus) (HIV-1)
[24] = target: HO86.8 (HIV-1)
[25] = target: HT593.1 (HIV-1)
[26] = target: HXB2.DG (HIV-1)
[27] = target: JRCSF.JB (HIV-1)
[28] = target: MN.3 (HIV-1)
[29] = target: PVO.04 (HIV-1)
[30] = target: QH0692.42 (HIV-1)
[31] = target: REJO.67 (HIV-1)
[32] = target: SC422.8 (HIV-1)
[33] = target: SF162.LS (HIV-1)
[34] = target: SS1196.01 (HIV-1)
[35] = target: T250-4 (HIV-1)
[36] = target: T253-11 (HIV-1)
[37] = target: T255-34 (HIV-1)
[38] = target: T257-31 (HIV-1)
[39] = target: T266-60 (HIV-1)
[40] = target: T278-50 (HIV-1)
[41] = target: T280-5 (HIV-1)
[42] = target: T33-7 (HIV-1)
[43] = target: THRO.18 (HIV-1)
[44] = target: TRJO.58 (HIV-1)
[45] = target: TRO.11 (HIV-1)
[46] = target: WITO.33 (HIV-1)
[47] = target: YU2.DG (HIV-1)
[48] = target: CAP210.E8 (HIV-1)
[49] = target: CH117.4 (HIV-1)
[50] = target: DU151.02 (HIV-1)
[51] = target: 231965.c1 (HIV-1)
[52] = target: 3326_V4_C3 (HIV-1)
[53] = target: 3337_V2_C6 (HIV-1)
[54] = target: 3817.v2.c59 (HIV-1)
[55] = target: 57128.vrc15 (HIV-1)
[56] = target: Env of HIV-1 strain 6405 (pseudovirus) (HIV-1)
[57] = target: Env of HIV-1 strain A03349M1 (pseudovirus) (HIV-1)
[58] = target: NKU3006.ec1 (HIV-1)
[59] = target: SIVmac251.30.SG3 (SIV)
[60] = target: UG024.2 (HIV-1)
[61] = target: ZM249.1 (HIV-1)
[62] = target: ZM53.12 (HIV-1)
[63] = target: ZM55.28a (HIV-1)

Substance: monoclonal antibody PG16
- neutralization IC80 [1]: > 50 µg/mL
- neutralization IC80 [2]: 0.088 µg/mL
- neutralization IC80 [3]: 0.458 µg/mL
- neutralization IC80 [4]: > 50 µg/mL
- neutralization IC80 [5]: > 50 µg/mL
- neutralization IC80 [6]: 38.8 µg/mL
- neutralization IC80 [7]: > 50 µg/mL
- neutralization IC80 [8]: > 50 µg/mL
- neutralization IC80 [9]: > 50 µg/mL
- neutralization IC80 [10]: > 50 µg/mL
- neutralization IC80 [11]: 0.013 µg/mL
- neutralization IC80 [12]: > 50 µg/mL
- neutralization IC80 [13]: > 50 µg/mL
- neutralization IC80 [14]: > 50 µg/mL
- neutralization IC80 [15]: > 50 µg/mL
- neutralization IC80 [16]: 1.11 µg/mL
- neutralization IC80 [17]: > 50 µg/mL
- neutralization IC80 [18]: > 50 µg/mL
- neutralization IC80 [19]: > 50 µg/mL
- neutralization IC80 [20]: > 50 µg/mL
- neutralization IC80 [21]: > 50 µg/mL
- neutralization IC80 [22]: > 50 µg/mL
- neutralization IC80 [23]: > 50 µg/mL
- neutralization IC80 [24]: 0.02 µg/mL
- neutralization IC80 [25]: 13.7 µg/mL
- neutralization IC80 [26]: > 50 µg/mL
- neutralization IC80 [27]: 0.015 µg/mL
- neutralization IC80 [28]: > 50 µg/mL
- neutralization IC80 [29]: > 50 µg/mL
- neutralization IC80 [30]: > 50 µg/mL
- neutralization IC80 [31]: 0.4 µg/mL
- neutralization IC80 [32]: > 50 µg/mL
- neutralization IC80 [33]: > 50 µg/mL
- neutralization IC80 [34]: 2.9 µg/mL
- neutralization IC80 [35]: 0.001 µg/mL
- neutralization IC80 [36]: > 50 µg/mL
- neutralization IC80 [37]: 0.079 µg/mL
- neutralization IC80 [38]: 0.021 µg/mL
- neutralization IC80 [39]: > 50 µg/mL
- neutralization IC80 [40]: > 50 µg/mL
- neutralization IC80 [41]: 4.53 µg/mL
- neutralization IC80 [42]: 0.279 µg/mL
- neutralization IC80 [43]: > 50 µg/mL
- neutralization IC80 [44]: 13.9 µg/mL
- neutralization IC80 [45]: > 50 µg/mL
- neutralization IC80 [46]: < 0.023 µg/mL
- neutralization IC80 [47]: > 50 µg/mL
- neutralization IC80 [48]: 0.882 µg/mL
- neutralization IC80 [49]: 0.028 µg/mL
- neutralization IC80 [50]: < 0.023 µg/mL
- neutralization IC80 [51]: > 50 µg/mL
- neutralization IC80 [52]: 0.221 µg/mL
- neutralization IC80 [53]: > 50 µg/mL
- neutralization IC80 [54]: 0.051 µg/mL
- neutralization IC80 [55]: > 50 µg/mL
- neutralization IC80 [56]: > 50 µg/mL
- neutralization IC80 [57]: > 50 µg/mL
- neutralization IC80 [58]: > 50 µg/mL
- neutralization IC80 [59]: > 50 µg/mL
- neutralization IC80 [60]: > 50 µg/mL
- neutralization IC80 [61]: 9.23 µg/mL
- neutralization IC80 [62]: 0.103 µg/mL
- neutralization IC80 [63]: > 50 µg/mL
